{"source": "paper PMC4676636", "about": "“Aptamers Binding to c-Met Inhibiting Tumor Cell Migration”", "binders": {"B1": {"name": "CLN-F (XNA)", "DNA": "GGAGGGAAAAGTTATCAGGCCGCTAGTTACCAGGTGTAGCTGACCAAGCGGATGTGTGTTGATTAGTTTTGGAGTACTCGCTCC", "modifications": "2'-O-methyl purines and 2'-fluoro pyrimidines (mRfY)"}, "B2": {"name": "CLN3-T (SL1) (ssDNA)", "DNA": "GAAAAGTTATCAGGCTGGATGGTAGCTCGGTCGGGGTGGGTGGGTTGGCAAGTCTGATT"}, "B3": {"name": "CLN-X (ssDNA)", "DNA": "GGAGGGAAAAGTTATCAGGCATGCGCTAGCCGATCGAATCCCGTAGACATTCCGATCGACGATTAGTTTTGGAGTACTCGCTCC"}}, "key": {"[1]": {"biological_target": "T1, human c-Met-Fc (c-Met ectodomain, IgG1-Fc fusion) (Homo sapiens, UniProt P08581 25-932)", "T1 sequence (P08581 25-932)": "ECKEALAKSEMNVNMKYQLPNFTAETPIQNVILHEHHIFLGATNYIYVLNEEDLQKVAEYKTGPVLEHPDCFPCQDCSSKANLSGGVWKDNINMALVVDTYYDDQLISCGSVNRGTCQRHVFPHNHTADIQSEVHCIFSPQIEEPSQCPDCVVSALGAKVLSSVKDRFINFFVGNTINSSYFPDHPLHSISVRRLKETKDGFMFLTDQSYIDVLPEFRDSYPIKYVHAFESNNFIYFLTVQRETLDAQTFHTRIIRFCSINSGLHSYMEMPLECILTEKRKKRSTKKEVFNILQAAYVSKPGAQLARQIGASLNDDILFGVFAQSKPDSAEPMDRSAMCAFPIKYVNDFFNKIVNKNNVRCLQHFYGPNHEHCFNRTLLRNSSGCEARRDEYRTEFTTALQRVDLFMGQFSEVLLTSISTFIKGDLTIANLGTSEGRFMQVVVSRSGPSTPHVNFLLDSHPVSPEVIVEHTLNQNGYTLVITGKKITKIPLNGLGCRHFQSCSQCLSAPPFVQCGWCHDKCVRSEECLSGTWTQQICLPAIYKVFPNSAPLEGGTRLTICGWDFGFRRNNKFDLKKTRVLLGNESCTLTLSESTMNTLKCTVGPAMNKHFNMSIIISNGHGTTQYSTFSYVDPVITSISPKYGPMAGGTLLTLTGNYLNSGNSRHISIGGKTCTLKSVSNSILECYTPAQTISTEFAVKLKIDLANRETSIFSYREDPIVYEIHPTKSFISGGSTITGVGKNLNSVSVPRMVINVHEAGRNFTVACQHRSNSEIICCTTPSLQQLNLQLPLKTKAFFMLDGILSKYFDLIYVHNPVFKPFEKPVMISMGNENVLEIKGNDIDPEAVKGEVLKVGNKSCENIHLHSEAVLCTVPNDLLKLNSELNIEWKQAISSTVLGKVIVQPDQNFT", "assay": "competition; vs 32P-CLN64-T; Dotblot: nitrocellulose filter, 37 C (competition, 30 min); BLI: DPBS, 37 C, Protein A tips, 1:1 fit; ELISA: PBS/1% BSA; flow cytometry: PBS/1% BSA, 4 C, 30 min", "settings": "protein: recombinant; tags: Fc (IgG1); chain copies: 2; 3'-biotin (CLN-F-B, cells)"}, "[2]": {"biological_target": "T1, human c-Met-Fc (c-Met ectodomain, …)", "assay": "competition ELISA; competes with immobilized HGF; Fig 2 legend gives 72 nM; Dotblot: nitrocellulose filter, 37 C (competition, 30 min); BLI: DPBS, 37 C, Protein A tips, 1:1 fit; ELISA: PBS/1% BSA; flow cytometry: PBS/1% BSA, 4 C, 30 min", "settings": "protein: recombinant; tags: Fc (IgG1); chain copies: 2; label: 32P (dotblot)"}, "[3]": {"biological_target": "T1, human c-Met-Fc (c-Met ectodomain, …)", "assay": "filter binding (dotblot); Dotblot: nitrocellulose filter, 37 C (competition, 30 min); BLI: DPBS, 37 C, Protein A tips, 1:1 fit; ELISA: PBS/1% BSA; flow cytometry: PBS/1% BSA, 4 C, 30 min", "settings": "protein: recombinant; tags: Fc (IgG1); chain copies: 2; label: 32P (dotblot)"}, "[4]": {"biological_target": "T1, human c-Met-Fc (c-Met ectodomain, …)", "assay": "competition; vs 32P-CLN3-T; Dotblot: nitrocellulose filter, 37 C (competition, 30 min); BLI: DPBS, 37 C, Protein A tips, 1:1 fit; ELISA: PBS/1% BSA; flow cytometry: PBS/1% BSA, 4 C, 30 min", "settings": "protein: recombinant; tags: Fc (IgG1); chain copies: 2"}}, "data": [{"binder": "B1", "values": [{"measurement": "binding result", "setting": "[1]", "value": "no binding"}]}, {"binder": "B2", "values": [{"measurement": "IC50", "setting": "[2]", "value": 74, "unit": "nM"}, {"measurement": "Kd", "setting": "[3]", "value": 0.1, "unit": "nM"}]}, {"binder": "B3", "values": [{"measurement": "binding result", "setting": "[4]", "value": "no binding"}]}]}
